Source: patent US20200247849A1, “PEPTIDE AGONISTS AND ANTAGONISTS OF TLR4 ACTIVATION” (PEPTICOM LTD, priority 2016, published 2020)

Tests used:
Format in all cases: cell-based
CD14-TLR4 = biological target: T1, CD14-TLR4 (Homo sapiens, UniProt P08571); test: Reporter gene assay, NIH3T3 cells transfected with CD14 and TLR4, LPS-mediated activation; conditions: FIG. 6I
T1 construct: expressed in transfected cells; host or cells: NIH3T3
T1 sequence (P08571 20-345 limits assumed): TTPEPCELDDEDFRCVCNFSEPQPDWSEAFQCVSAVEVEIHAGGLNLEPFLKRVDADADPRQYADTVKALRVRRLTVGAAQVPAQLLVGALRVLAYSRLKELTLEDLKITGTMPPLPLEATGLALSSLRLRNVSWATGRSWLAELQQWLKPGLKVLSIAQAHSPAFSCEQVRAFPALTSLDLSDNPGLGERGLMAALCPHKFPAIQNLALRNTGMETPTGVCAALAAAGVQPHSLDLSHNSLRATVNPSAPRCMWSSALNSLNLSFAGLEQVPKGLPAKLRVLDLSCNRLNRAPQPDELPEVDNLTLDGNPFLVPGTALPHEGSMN
Description: FIGS. 6A-6V present peptide activity using NIH3T3 cells that express TLR4, with either the MD2 co-receptor (top) or CD14 co-receptor (bottom), for peptides of SEQ ID Nos. 1-22, respectively, according to some embodiments of the invention. FIGS. 6A-6V show the dose response inhibitor/activator effects of the designed peptides using a reporter gene assay. The reporter gene assay is composed of NIH3T3 cells transfected with either MD2 or CD14 along with TLR4 and the NF-κB-inducible reporter gene Secreted Alkaline Phosphatase (SEAP) to monitor TLR4 activation (Burger-Kentischer et al. 2010, A new cell-based innate immune receptor assay for the examination of receptor activity, ligand specificity, signaling pathways and the detection of pyrogens. J Immunol Methods. 358(1-2): 93-103). […] The receptors are coupled to for the detection of inhibitory activity, cells were treated with the peptide prior to exposure to LPS and the response to LPS is measured at variable peptide doses (as labeled). […]
At Day 3: To determine the final SEAP value, 50 μl of the supernatant is carefully transferred in a new 96-well plate (Greiner-F-plate) and 50 μl of the substrate (pNPP; p-nitrophenyl phosphate) is added. SEAP catalyzes the hydrolysis of pNPP to the final product para-nitrophenol (yellow) which can be detected by a photometric analysis using an UV-VIS reader at 405 nm. […]

[1] = tested on: primary mouse macrophages (expressing TLR4, MD2 and CD14); test: TNF-a release from primary mouse macrophages exposed to LPS; conditions: FIG. 7
Description: (§1) The top graph presents TNF-a release from primary mouse macrophages exposed to LPS treated with either peptide SEQ ID No. 9 or a control peptide while the bottom graph presents TNF-a release from primary mouse macrophages exposed to PAM3 treated with either peptide SEQ ID No. 9 or a control peptide. […] This method had been previously described (Lerner et al. 2011, Heparanase powers a chronic inflammatory circuit that promotes colitis-associated tumorigenesis in mice. J Clin Invest. 121(5): 1709-1721).

TLR1/2 = biological target: T2, TLR1/2 (Mus musculus, UniProt Q9EPQ1+Q9QUN7); test: TNF-a release from primary mouse macrophages exposed to PAM3; conditions: primary mouse macrophages exposed to PAM3, FIG. 7
T2 construct: endogenous in cells; host or cells: primary mouse macrophages
Description: as §1

T2 sequence (Q9EPQ1 26-795): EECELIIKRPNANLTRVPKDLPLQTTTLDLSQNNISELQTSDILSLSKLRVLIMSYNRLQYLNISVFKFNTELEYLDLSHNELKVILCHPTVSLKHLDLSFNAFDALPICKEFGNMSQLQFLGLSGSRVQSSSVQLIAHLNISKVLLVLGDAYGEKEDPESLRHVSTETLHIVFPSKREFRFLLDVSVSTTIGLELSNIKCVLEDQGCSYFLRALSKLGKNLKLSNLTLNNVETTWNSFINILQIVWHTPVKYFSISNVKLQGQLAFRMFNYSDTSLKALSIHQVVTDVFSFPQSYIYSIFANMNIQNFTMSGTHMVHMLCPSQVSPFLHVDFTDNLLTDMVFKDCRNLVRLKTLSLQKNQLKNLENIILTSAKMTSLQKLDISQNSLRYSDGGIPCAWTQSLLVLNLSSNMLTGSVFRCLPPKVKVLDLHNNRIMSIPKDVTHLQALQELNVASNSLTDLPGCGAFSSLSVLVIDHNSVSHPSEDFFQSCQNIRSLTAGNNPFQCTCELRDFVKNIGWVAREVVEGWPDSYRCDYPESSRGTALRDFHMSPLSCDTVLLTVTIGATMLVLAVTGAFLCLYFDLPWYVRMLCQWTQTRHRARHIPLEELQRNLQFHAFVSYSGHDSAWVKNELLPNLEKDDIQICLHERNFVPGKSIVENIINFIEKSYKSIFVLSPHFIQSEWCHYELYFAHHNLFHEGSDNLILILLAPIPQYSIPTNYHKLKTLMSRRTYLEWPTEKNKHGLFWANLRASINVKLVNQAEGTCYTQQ
T2 sequence (Q9QUN7 25-784): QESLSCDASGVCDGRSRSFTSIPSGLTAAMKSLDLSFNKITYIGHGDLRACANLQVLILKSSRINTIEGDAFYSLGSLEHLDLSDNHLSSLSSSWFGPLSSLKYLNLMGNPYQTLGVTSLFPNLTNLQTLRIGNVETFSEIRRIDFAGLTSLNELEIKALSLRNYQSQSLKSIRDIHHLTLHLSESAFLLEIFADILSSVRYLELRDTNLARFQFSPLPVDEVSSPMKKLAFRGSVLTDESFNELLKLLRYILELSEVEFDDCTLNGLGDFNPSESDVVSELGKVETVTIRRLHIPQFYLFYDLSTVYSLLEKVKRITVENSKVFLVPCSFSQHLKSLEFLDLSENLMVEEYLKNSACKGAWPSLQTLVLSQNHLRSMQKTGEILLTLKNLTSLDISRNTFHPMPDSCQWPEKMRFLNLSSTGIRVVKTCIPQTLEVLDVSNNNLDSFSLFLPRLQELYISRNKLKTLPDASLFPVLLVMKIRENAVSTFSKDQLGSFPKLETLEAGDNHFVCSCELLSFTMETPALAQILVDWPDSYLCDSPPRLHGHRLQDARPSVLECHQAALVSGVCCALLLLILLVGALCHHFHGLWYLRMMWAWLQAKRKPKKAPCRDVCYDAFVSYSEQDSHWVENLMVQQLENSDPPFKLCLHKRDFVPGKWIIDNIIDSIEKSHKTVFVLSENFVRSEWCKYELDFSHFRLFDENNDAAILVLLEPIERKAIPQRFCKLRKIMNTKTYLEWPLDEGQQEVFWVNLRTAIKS

Sequence: ILFMGMKWL (Inhibitor) [SEQ ID No. 9]
- inhibition of LPS mediated CD14-TLR4 activation (CD14-TLR4): inability of to inhibit
- effect on LPS-induced TNF-a release [1]: inhibitory effect
- effect on PAM3 induced TNF-a release (TLR1/2): no significant effect
